The results in this text go back to patent publication US9879094B2, “Nucleic acid molecules encoding for BACE1 antibodies” (Genentech, Inc., priority 2010, dated 2018).

This test has as its target BACE1 (Homo sapiens, UniProt P56817). As to the kind of experiment: HTRF BACE1 enzyme activity assay (long peptide Bi27). In kind it is biochemical. The note with it: purified affinity matured Fabs. As for the experimental part:
The HTRF assay was performed as follows. […] The proteolytic reaction mixture was incubated at ambient temperature for 75 minutes and was quenched by the addition of 5 μL HTRF detection mixture containing 2 nM Streptavidin-D2 and 150 nM of 6E10 anti-amyloid beta antibody (Covance, Emoryville, Calif.) labeled with Europium cryptate in detection buffer (200 mM Tris pH 8.0, 20 mM EDTA, 0.1% BSA, and 0.8M KF). The final reaction mixture was incubated at ambient temperature for 60 minutes and the TR-FRET signal was measured using an EnVision Multilabel Plate Reader™ (Perkin-Elmer) at an excitation wavelength of 320 nm and emission wavelengths of 615 and 665 nm. Reactions lacking BACE1 enzyme (0 BACE) and reactions containing lacking anti-BACE1 antibodies (PBS (100% BACE1 Activity) were used as controls.
Fab proteins of 6 clones were purified and subjected for HTRF enzyme activity assay, as described above.
The affinity matured YW412.8.31 anti-BACE1 antibody was tested in a HTRF assay as described in Example 1. […] Additionally, reactions using a short FRET peptide (Rh-[…]-quencher (SEQ ID NO:54), Invitrogen) were also performed identically to the HTRF reactions. The resulting fluorogenic products from the control reactions were measured as above, but at an excitation wavelength of 545 nm and an emission wavelength of 585 nm. Obtained data were analyzed using GraphPad Prism 5™ (LaJolla, Calif.).
(In general: In TR-FRET formats the signal depends on donor and acceptor labels being close together.)

BACE1, sequence (P56817 22-457): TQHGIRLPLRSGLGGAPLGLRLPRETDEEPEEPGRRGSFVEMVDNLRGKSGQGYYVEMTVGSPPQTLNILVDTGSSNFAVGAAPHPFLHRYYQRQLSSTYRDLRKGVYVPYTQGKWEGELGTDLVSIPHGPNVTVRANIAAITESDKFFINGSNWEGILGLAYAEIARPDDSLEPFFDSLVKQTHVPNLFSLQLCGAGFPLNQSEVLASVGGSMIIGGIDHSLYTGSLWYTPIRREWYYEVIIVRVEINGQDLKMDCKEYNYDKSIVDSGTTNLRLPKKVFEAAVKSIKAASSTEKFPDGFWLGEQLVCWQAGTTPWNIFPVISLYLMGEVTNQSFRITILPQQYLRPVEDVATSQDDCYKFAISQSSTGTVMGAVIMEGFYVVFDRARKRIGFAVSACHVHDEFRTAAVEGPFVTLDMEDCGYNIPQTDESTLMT

B1: LC4: affinity matured clone derived from Fab5 (antibody, V domains shown)
VL: DIQMTQSPSSLSASVGDRVTITCRASQSVSSAVAWYQQKPGKAPKLLIYSASSLYSGVPSRFSGSGSGTDFTLTISSLQPEDFATYYCQQYSYSLLTFGQGTKVEIK
VH: EISEVQLVESGGGLVQPGGSLRLSCAASGFNLSYSYIHWVRQAPGKGLEWVASIYSSYGSTYYADSVKGRFTISADTSKNTAYLQMNSLRAEDTAVYYCARSYHHSDKYYYAWSYALDYWGQGTLVTVSS
Regarding B1, the “inhibition activity compared to parent Fab” value was “significant improved inhibition”.

B2: LC40 (antibody, V domains shown)
VL: DIQMTQSPSSLSASVGDRVTITCRASQYSYSYSVAWYQQKPGKAPKLLISYASYLYSGVPSRFSGSGSGTDFTLTISSLQPEDFATYYCQQYSYSYSPITFGQGTKVEIK
VH: EISEVQLVESGGGLVQPGGSLRLSCAASGFNVSSSSMHWVRQAPGKGLEWVASIYPYSSSTSYADSVKGRFTISADTSKNTAYLQMNSLRAEDTAVYYCARYSYYSYGIDYWGQGTLVTVSS
In the case of B2, the “inhibition activity compared to parent Fab” value was “lost its inhibition activity”.
